Experimental data reported in article PMC3166428.

Biological target: GST-TRIP8b(1b-2) full
Assay: pull-down

clathrin (from UniProt P11442 1-1675; P08081 1-248) (complex)
fraction of loaded clathrin in the eluate (fraction of loaded clathrin): > 0.67
